# From patent US20150119475
# B1: recombinant Akt1 (ProQinase GmbH) (protein)
# chain: VADGLKKQEEEEMDFRSGSPSDNSGAEEMEVSLAKPKHRVTMNEFEYLKLLGKGTFGKVILVKEKATGRYYAMKILKKEVIVAKDEVAHTLTENRVLQNSRHPFLTALKYSFQTHDRLCFVMEYANGGELFFHLSRERVFSEDRARFYGAEIVSALDYLHSEKNVVYRDLKLENLMLDKDGHIKITDFGLCKEGIKDGATMKTFCGTPEYLAPEVLEDNDYGRAVDWWGLGVVMYEMMCGRLPFYNQDHEKLFELILMEEIRFPRTLGPEAKSLLSGLLKKDPKQRLGGGSEDAKEIMQHRFFAGIVWQHVYEKKLSPPFKPQVTSETDTRYFDEEFTAQMITITPPDQDDSMECVDSERRPHFPQFSYSASGTA
# Target: Snail protein (SNAI1/Snail, expressed as GST fusion in E. coli, GST moiety cleaved with thrombin), O95863
# Sequence (O95863 whole entry, the tested form may be a part): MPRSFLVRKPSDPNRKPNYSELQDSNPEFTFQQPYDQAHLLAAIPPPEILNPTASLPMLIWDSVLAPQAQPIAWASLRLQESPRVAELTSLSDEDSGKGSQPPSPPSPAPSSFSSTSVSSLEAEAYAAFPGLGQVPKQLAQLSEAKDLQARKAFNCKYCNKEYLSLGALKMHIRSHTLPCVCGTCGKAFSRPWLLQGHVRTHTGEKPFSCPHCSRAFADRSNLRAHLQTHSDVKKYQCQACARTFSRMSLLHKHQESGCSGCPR
protein,measurement,value
B1,"in vitro kinase assay with 32P-ATP, detected by autoradiography",Akt1 and Akt3 kinases are able to directly phosphorylate Snail protein
